Laboratory results reported in patent US20260285954.

Biological target: Aβ oligomers (Aβ42) (human), P05067
Test: SPR
Details: remark: other sources report otherwise

Aβ oligomers (Aβ42) (human), P05067, sequence (P05067 672-713): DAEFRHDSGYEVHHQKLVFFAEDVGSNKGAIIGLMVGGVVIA

B1: 3F (protein)
chain: MAEVQLLESGGGLVQPGGSLRLSCAASGFTFSSYAMSWVRQAPGKGLEWVSGISNLGLTTGYADSVKGRFTISRDNSKNTLYLQMNSLRAEDTAVYYCAKTTSRFDYWGQGTLVTVSSGGGGSGGGGSGGGGSTDIQMTQSPSSLSASVGDRVTITCRASQSISSYLNWYQQKPGKAPKLLIYKASYLQSGVPSRFSGSGSGTDFTLTISSLQPEDFATYYCQNSAVRPVTFGQGTKVEIKR
B1 gave a Kd of 847 pM.
